# B1: Recombinant human TS5-p45 (C-terminal His-tagged, Ser262-Pro622 truncate of ADAMTS5) (domain or fragment, UniProt Q9UNA0 262-622, looked up)
# chain: SISRARQVELLLVADASMARLYGRGLQHYLLTLASIANRLYSHASIENHIRLAVVKVVVLGDKDKSLEVSKNAATTLKNFCKWQHQHNQLGDDHEEHYDAAILFTREDLCGHHSCDTLGMADVGTICSPERSCAVIEDDGLHAAFTVAHEIGHLLGLSHDDSKFCEETFGSTEDKRLMSSILTSIDASKPWSKCTSATITEFLDDGHGNCLLDLPRKQILGPEELPGQTYDATQQCNLTFGPEYSVCPGMDVCARLWCAVVRQGQMVCLTKKLPAVEGTPCGKGRICLQGKCVDKTKKKYYSTSSHGNWGSWGSWGQCSRSCGGGVQFAYRHCNNPAPRNNGRYCTGKRAIYRSCSLMPCP
# notes: ADAMTS5 (A Disintegrin and Metalloproteinase with Thrombospondin Motifs 5, aggrecanase-2), human, residues Ser262-Pro622; also called 45 kDa truncate of ADAMTS5; source: bought: R&D Systems (2198-AD-01M); not shown: His tag, C-terminal, kept
# Experiments:
# [1] = biological target: T1, Recombinant human NCL (FLAG-tagged, full length) (human, UniProt P19338 1-710); test: SPR; Biacore T200, CM5 chip; recombinant NCL captured by amine-coupled anti-NCL antibody; TS5-p45 as analyte, five dilutions, single-cycle kinetics; 25 C; HBST (10 mM HEPES, 150 mM NaCl, 50 uM EDTA, pH 7.4, 0.05% Tween-20); 1:1 model; conditions: both partners purified
# T1 construct: Nucleolin (NCL), human, full length; also called rhNCL; recombinant NCL; source: bought: OriGene (TP319082)
# T1 sequence (P19338 whole entry): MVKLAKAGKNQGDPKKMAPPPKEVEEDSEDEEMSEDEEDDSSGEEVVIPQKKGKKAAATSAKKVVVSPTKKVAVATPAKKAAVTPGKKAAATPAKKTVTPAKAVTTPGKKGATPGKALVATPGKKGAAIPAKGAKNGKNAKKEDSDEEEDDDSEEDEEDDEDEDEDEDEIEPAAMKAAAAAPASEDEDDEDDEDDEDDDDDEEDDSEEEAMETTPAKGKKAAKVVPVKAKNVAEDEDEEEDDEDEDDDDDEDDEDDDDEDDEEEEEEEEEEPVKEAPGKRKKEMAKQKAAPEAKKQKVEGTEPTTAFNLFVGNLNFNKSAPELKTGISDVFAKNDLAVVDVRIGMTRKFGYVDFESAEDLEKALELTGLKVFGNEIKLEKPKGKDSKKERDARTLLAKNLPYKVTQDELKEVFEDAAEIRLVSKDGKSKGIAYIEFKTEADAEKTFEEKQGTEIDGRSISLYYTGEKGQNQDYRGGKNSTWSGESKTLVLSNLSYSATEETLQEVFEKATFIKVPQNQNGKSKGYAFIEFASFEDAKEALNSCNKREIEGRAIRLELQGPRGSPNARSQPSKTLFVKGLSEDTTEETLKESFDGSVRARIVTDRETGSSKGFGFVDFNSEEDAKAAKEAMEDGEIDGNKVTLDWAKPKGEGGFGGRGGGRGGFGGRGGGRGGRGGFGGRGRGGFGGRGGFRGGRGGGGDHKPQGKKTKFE
# [2] = biological target: T2, FLAG-tagged full-length NCL (NCL-FL 1-710) (UniProt P19338 1-710); test: ELISA; saturation binding: FLAG-NCL-FL from HEK293T whole cell lysate captured on anti-FLAG antibody-coated plate; TS5-p45 titrated, 4 C overnight; anti-His detection; conditions: one partner purified
# T2 construct: Nucleolin (NCL), residues 1-710, in pCMV-Tag2; the length of 710 residues fits human nucleolin; source: HEK293T, transiently transfected, in whole cell lysate; not shown: FLAG, N-terminal, kept
# T2 sequence (P19338 whole entry, the tested form may be a part): as the sequence (P19338 whole entry) above
binder,measurement,setting,value
B1,Kd,[1],~28 nM
same,Kd,[2],~26 nM
